Literature values in paper PMC7031699.
Where two headings read alike, the source gives them in different places.

How the values were obtained:
Gq (Homo sapiens) [1] = biological target: Gq (Homo sapiens) (UniProt P50148)
Gq (Homo sapiens) [2] = biological target: Gq (Homo sapiens) (UniProt P50148); remark: listed apart in the source

UniProt P50148, sequence (P50148 whole entry): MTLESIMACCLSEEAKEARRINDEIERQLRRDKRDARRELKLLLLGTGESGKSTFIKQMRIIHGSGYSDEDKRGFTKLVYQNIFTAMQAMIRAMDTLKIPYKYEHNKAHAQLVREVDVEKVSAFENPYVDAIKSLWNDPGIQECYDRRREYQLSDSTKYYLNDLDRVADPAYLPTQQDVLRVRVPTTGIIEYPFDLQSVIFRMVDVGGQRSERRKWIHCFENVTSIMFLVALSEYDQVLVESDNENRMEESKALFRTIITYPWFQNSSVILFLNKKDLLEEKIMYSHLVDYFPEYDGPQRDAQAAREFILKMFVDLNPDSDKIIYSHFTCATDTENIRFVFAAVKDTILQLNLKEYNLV

## NTS1 (from UniProt P20789)
Gq (Homo sapiens) [1]
  Kd: > 5000 nM
Gq (Homo sapiens) [2]
  Kd: 550 nM
